# Measurements as given in article PMC7547225.
# Target: bacterially produced mm PCDH15 EC9-MAD12 (Mus musculus)
# Assay: SAXS
substance,measurement,value
bacterially produced mm PCDH15 EC9-MAD12 (domain or fragment),stoichiometry N,2
